The DeepSol protein solubility set

Assay: soluble on expression in E. coli; label from the status in PepcDB or PDB records
With “MGSDKIHHHHHHMKSFVIEDEFWSLFPNAKIGVVICHSIDNSIKDENQYKDMISNSEEEALSYLKNEEFSSNEVIKVWREAFQKFKTKKGARSSIEALLKRVHKGNHIGTINPLVDIYNSISLRYAMPCGGEDIDAFAGDIRLTKAVGNESFVTLGTDKNEPPYEGEIVYKDNEGAICRCFNWRESVRTMLTENTKNAFLCIELIDETRVKEFEDALDTLAKTVQDNLGGNCKISTLDINNKSVVID” the “soluble on expression in E. coli” value was “not soluble”. With “MAHHHHHHMSCLNVQPVQLPITNKFRNLPAGKPSHRHESTFCRFFSDTTEKECKGSRRNINHRNKSSIFDNVEENDIIDNTKINQYNNVKKRFVSNNSLEFKKTFQKNINYVPNEKYGKKNIPDVRNLYIFSRQELNSDTKERKSSKKISNYSLEKNPNKWGVDVLKYNLPSPKKIYRHVDNLTTCLVPKISEDSFIPKKNKKYYVTHLEKSLCPKENILLLNSKKKLIHLHQSKLEMNCVPKDYEQEINKNKPVFLERNLNNNLIPIVECKRRTFHVNDTCKNKQCSINFSCERKPSPFRSGKRIGYIFTRNDNPTFFF” the “soluble on expression in E. coli” value was “not soluble”. For “QITGIETGFYDFDKLITGLHEDQLIVLAARPAMGKTALALNIAQNVATKSNKAVAVFSLEMGAESLVERMLSAEGTIINHHIRTGNLTVNEWQRLIYAQGQLAEAPIFIDDTAGVKITDIRARARRLSQETDGLGLIVIDYLQLIQGSRSDNRQQEVSEISRQLKIIAKELKVPVIALSQLSRGVEQRNDKRPIMSDL”, the “soluble on expression in E. coli” value was “not soluble”. In the case of “MYLPAHFAETRPEELARIIRAHPLGMLVTQDAQGLDADHLPFEFDPDAGPHGTLIAHVARANTLWQRCPDGSAVMVVFRGAEGYISPNWYPSKHEAHRQVPTWNYEVVHAHGTLAVRDDERFVRGVVARLTRRHEAGEPRPWKMTDSTPEYIDSMLRNIVGIEVAITSLVGKRKLSQNKDERDRLGAVQALQARGQDTLAQSMARAELEHHHHHH”, the “soluble on expression in E. coli” value is reported as “not soluble”. In the case of “MGSDKIHHHHHHMIHTREEQMEAFGRFLDILDELRVKCPWDRKQTNESLRPNTIEETYELCDALMRDDKKDICKELGDVLLHVAFYAKIGSETGDFDIKDVCDKLCDKLIFRHPHVFGEVKAETAGQVSENWEQLKLKEKDGNKSVLSGVPSALPSLIKAYRIQDKARNVGFDWEEREQVWDKVKEEIREFQVEVANMDKEKAEAEFGDVMFSLINAARLYKINPDNALELTNQKFIRRFNYLEEHTIKEGKNLKDMSLEEMDAIWNEAKRKGL”, the “soluble on expression in E. coli” value is reported as “not soluble”. For “MSSSNWEKLKKKLDSAKSGRVEKKHSNEKKYLKSVKGKNNENENSYIVDKKRMNELKKFAKENDIPESQVLDAYGVDASKLTRKTNLETLGKYIAMDCEMVGVADDMSVLARVSIVNYHGHVVYDTYVRPKEKVTDWRTWVSGVKSFHMRDAPSFEKVQAEVAKILDNRVLVGHAVHNDLKVLLLSHPRRMIRDTSRFSGYRKLAKGRTPGLKKLAEVILGRDIQSGQHSSVQDAQATMELYKKVKKEMDEVAFKGLSKS”, the “soluble on expression in E. coli” value was “soluble”. With “MPQYKGSREVISIHVGQAGVQIGNACWELFCLEHGIQPDGYHVEDDTYDEETETINTFFAETAGGKHVPRCLFVDLEPTVVDEVRTGTYRSLFHPEQLLSGKEDAANCYARGRYTIGREMIDVVMDRVKRLAENCNGLQGFVIFHSFGGGTGSGFLSLLMERLSTEYGKKPKLEFAIYPAPQVSTSMVEPYNSILMTHTTLEHSDCTFMVDNEAIYDICRRNLDLARPTYTNLNRLVAQIISSITASLRFEGALNVDLTEFQTNLVPYPRIHFPLVTYAPLVSAERASHEQNTVSDMTHACFEPGYQMVKCDPRRGKYMAVCLLYRGDVVPKDINSAIAAVKTKRTVQFVEWCPTGFKVGINYQPPTVVPGGDLGKQTRSVCMISNTTAIAEAWARLDHKFDLMYAKRAFVHWYVGEGMEEGEFSEAREDMAALEKDYEEIGEDELPDDIDDQSYRGRSSGSRY” the “soluble on expression in E. coli” value was “not soluble”. In the case of “MSRYGKNLVHYIIVEHDDQRGQKPIDDDDEKNFYYHCSFTFETFFRATAFLLAPAVCAVREVPCRLTRTRYNATEYIEGYGWMISLQQGLGVAEFYRPWPLSVQLQRYTTPSRRSRFAVLTPQRKCHQNEANGQDLSLLILLSRIYPLCSNTSQTRRVAARKGKLS”, the “soluble on expression in E. coli” value is reported as “not soluble”. For “MGSDKIHHHHHHMKAVTLRANCDPLFSLFMTSFSEANNIYILNFKKRALQSLLKVKLMYYHESIDSKSKIFPVKIILHDKAVNVPKHWHRSLEISYTYQGSIPDFTIAGKHYSTRPGTILVVNSNEIHSVFFPKTKKRQDSLALSLIFPYPFLMKIVPNYRYRRYEIPDKELLTANNQQNLAELEGILKKFFQFASHQTNSLDEISKTSQILQILYLLTKNFSSIVTTPNDLATTDKPFERLDEIIMFIQEHAKEALTVTKIADHFNLSTSYFSRNFKYYMGNSVIEYLNLVRLHEAYQLLTNTKKSILVISTQVGFPNEKAFTRTFKRIYKVTPTDYRKRLSGKNRTNIL”, the “soluble on expression in E. coli” value was “not soluble”. In the case of “MGSDKIHHHHHHMKKKSMIVLTSAFVLLSAFSCGGGGKATGTNEQSEKVVVNVPQFDADSAYLYVKNQVDFGPRVPNTKEHVACGNYLAGKLEAFGAKVTNQYADLIAYDGTLLKARNIIGSYKPESKKRIALFAHWDTRPWADNDADEKNHHTPILGANDGASGVGALLEIARLVNQQQPELGIDIIFLDAEDYGTPQFYEGKHKEEAWCLGSQYWSRNPHVQGYNARFGILLDMVGGENSVFLKEGYSEEFAPDINKKVWKAAKKAGYGKTFIDERGDTITDDHLFINRLARIKTIDIIPNDPETGFPPTWHTIHDNMDHIDKNTLKAVGQTVLEVIYNEK”, the “soluble on expression in E. coli” value is reported as “not soluble”. For “MAAALPRTLGELQLYRILQKANLLSYFDAFIQQGGDDVQQLCEAGEEEFLEIMALVGMASKPLHVRRLQKALRDWVTNPGLFNQPLTSLPVSSIPIYKLPEGSPTWLGISCSSYERSSNAREPHLKIPKCAATTCVQSLGQGKSDVVGSLALQSVGESRLWQGHHATESEHSLSPADLGSPASPKESSEALDAAAALSVAECVERMAPTLPKSDLNEVKELLKTNKKLAKMIGHIFEMNDDDPHKEEEIRKYSAIYGRFDSKRKDGKHLTLHELTVNEAAAQLCVKDNALLTRRDELFALARQISREVTYKYTYRTTKSKCGERDELSPKRIKVEDGFPDFQDSVQTLFQQARAKSEELAALSSQQPEKVMAKQMEFLCNQAGYERLQHAERRLSAGLYRQSSEEHSPNGLTSDNSDGQGERPLNLRMPNLQNRQPHHFVVDGELSRLYPSEAKSHSSESLGILKDYPHSAFTLEKKVIKTEPEDSR”, the “soluble on expression in E. coli” value was “soluble”. With “MGSHHHHHHDITSLYKKAGSAAAVLEENLYFGGSFTMANVNKTPGKTRRAEVAGGGFAGLTAAIALKQNGWDVRLHEKSSELRAFGAGIYLWHNGLRVLEGLGALDDVLQGSHTPPTYETWMHNKSVSKETFNGLPWRIMTRSHLHDALVNRARALGVDISVNSEAVAADPVGRLTLQTGEVLEADLIVGADGVGSKVRDSIGFKQDRWVSKDGLIRLIVPRMKKELGHGEWDNTIDMWNFWPRVQRILYSPCNENELYLGLMAPAADPRGSSVPIDLEVWVEMFPFLEPCLIEAAKLKTARYDKYETTKLDSWTRGKVALVGDAAHAMCPALAQGAGCAMVNAFSLSQDLEEGSSVEDALVAWETRIRPITDRCQALSGDYAANRSLSKGNMFTPAALEAARYDPLRRVYSWPQ” the “soluble on expression in E. coli” value was “soluble”. In the case of “MHHHHHHSSGVDLGTENLYFQSMSAQNNAKVAVLGASGGIGQPLSLLLKNSPLVSRLTLYDIAHTPGVAADLSHIETKAAVKGYLGPEQLPDCLKGCDVVVIPAGVPRKPGMTRDDLFNTNATIVATLTAACAQHCPEAMICVIANPVNSTIPITAEVFKKHGVYNPNKIFGVTTLDIVRANTFVAELKGLDPARVNVPVIGGHAGKTIIPLISQCTPKVDFPQDQLTALTGRIQEAGTEVVKAKAGAGSATLSMAYAGARFVFSLVDAMNGKEGVVECSFVKSQETECTYFSTPLLLGKKGIEKNLGIGKVSSFEEKMISDAIPELKASIKKGEDFVKTLK”, the “soluble on expression in E. coli” value is reported as “soluble”. For “KSLTLVLHRDSGSLGFNIIGGRPSVDNHDGSSSEGIFVSKIVDSGPAAKEGGLQIHDRIIEVNGRDLSRATHDQAVEAFKTAKEPIVVQVLRRT”, the “soluble on expression in E. coli” value was “soluble”. For “MQKQRMSGQNQKTDKRIAWPIIIMNFTGVYDYEAFARNNKFIWLDCRHLYGTDGYCDREGALALKGMIADYPAEGVHFIDSGNYHYLTKFWTDKLETPFSLIVFDHHPDMQPPLFDNILSCGSWVKDILDHNNNCKKVIIVGASDKLIQAVPKGYERQVRFYSETTLMHEEGWQNFSSGHINGPVYISIDKDVLKPASAATNWDQGSLSLWELEKLLAVILQKEQVVGIDICGECSTTLNLFEEKRETVMDSQANKELLRFIRSSSGLQ”, the “soluble on expression in E. coli” value was “not soluble”. With “MAHHHHHHMLPRGEQHVSVAGSDDYMDDAASALLSELQQVVVRVSHQMVEERRRAAQQRKQIRALEAIVAEQDAMLDALRTQCDAAQCEKSRLLKSYQQELRWRGADPVQAARRSRDICGTSGTHVSAAQVDNVVQAEFRRLSTIYESCPFSGFDDVSPVVAAVLRSLATQVLQLRGAARNDEAEASDISKDAQPAPVQPHATSSSLRASARGTSTSSLMPAFNRSAPTDGHGKAGVVDRVTPLAALEKRKKASMFAAATAGPNHSPSETAGRTNGEEAELHRVDLDAGRNGDADAAACMASEASASVASSVCEDAASILSDIRARYGL” the “soluble on expression in E. coli” value was “not soluble”. With “MSLDSHRISVLHVDDEPGLGETTAEFLRQQSDGFSVETATSTSEGLKRLTEAPFDCIVSDYDMADMDGIEFLRAVRAEYPDLPFVLFTGKGSEEVASEAVSAGVSDYLQKRGGTERYTLLANRITNLVTQHRAEERLRTRVQQQEAVADLGQYALTGCGLDALFERAVESVAAGLNTEYSKVLEYRPADNKFLLRAGVGWQSGLVGEAAVGAGEESQAGYTLQTEEPVVVEDLRTESRFSGPSLLLDHGVVSGISVIIGTTTEPWGVLGAHTSERRPFTKDDITFVRGVANTLTNAIEREQLEGTLRQAEQRYKTLLENFPGGGVFLFDDDLRYLIARGEGLSAFGLTPADVEGKTLAEVFPPAVVERQKPKYRAALDGETQVWTQEYEGKQYRLSTLPVTGSSDKQLGMVVSMDITGLSASEGHHHHHH” the “soluble on expression in E. coli” value was “soluble”. With “MSQTAAPLAQLNAMDTAQFVRTLGGIYEHSPWVAEQAAGQRPFASADALAAAMRRAVDGAGEGPQLKLVRAHPELAGKAAVRGELTAESTREQASAGLDQCSPEEFARLQALNARYNDKFGFPFILAVRGYDRHGIIDVFARRLENDRATELRASLEQIHRIAGFRLHDLISGKLAAALEHHHHHH” the “soluble on expression in E. coli” value was “not soluble”. For “MDIQIKRAYEPADPADGCRILVDRLWPRGLTKQQVACDLWLKEIAPTADLRKWFNHDPAKWAEFQRRYRDELSVNPCVKELLDRAAKGRLTLLYGARDAECNQAVVLRDYLLERN”, the “soluble on expression in E. coli” value was “not soluble”. With “MGSDKIHHHHHHMAVEKSTSIKNNSIKTVNVAVAVIHYQNQYLLGFRAASQHQGNRYEFVGGKIDAHETAKQALIREVAEETGINIANNTAVKLGRLHHDYGDKQVCLQVYRIEVTAQQYAQYKNLSCGLEGQKLTWVDKAKLLAGHYDLPAANKTILVWLQLPVQITITYPLAHFNGFPNPRAAWSQYHHEHIAADALVYMRIKVAGAEDSIERLLQLRSDIKAIAPDHLHTDKADNAVINRQIIAGHLTQTQLMQWSSSVAKESMSYSALSTNLPLIVSCHDADSINAANQLAFFRLQQQLPPVIGIFLAPVECTQTHPDTPPLGWEAWSKLAELADMPVIGLGGLSPVMSEQAMLHGGIAVAGIRQFLK” the “soluble on expression in E. coli” value was “not soluble”.
